# Where no end group is shown, it is not given here.
# B1: Ubiquilin1 UBA (single UBA domain, GST-fused) (other)
# chain: VNPQLQNPEVRFQQQLEQLSAMGFLNREANLQALIATGGDINAAIERLLGSQPS
# modifications: not fully specified (C-terminus); also: GST-fused, PreScission protease site and His6 tag, construct limits not given here
# notes: not shown: glutathione-S-transferase (GST) encoded by the pGEX-6P1 vector (Amersham); PreScission protease site and His6 tag with vector linker residues
# What was measured:
# [1] = target: T1, Mono-ubiquitin (Sigma Aldrich) (UniProt P0CG48 1-76); assay: SPR (Biacore), GST fusion captured on anti-GST antibody chip (150-220 RU), mono-ubiquitin injected in a 2-fold dilution series, steady-state fit
# Protocol: (§1) (FIG. 4C) Mono-ubiquitin interaction with single and tandem UBA domains from hHR23A and ubiquilin1 was monitored by real-time surface plasmon resonance (SPR).
# To measure real-time interactions, all experiments were performed with a BiaCore 3000 instrument, at 25° C., using HBS EP (0.01 B M HEPES pH 7.4, 0.15 M NaCl, 3 mM EDTA, 0.005% surfactant P20) (BiaCore) as running buffer. Anti GST antibody (BiaCore) was covalently immobilized on a CM5 chip (carboxy methylated dextran) from BiaCore with a density of approximately 9000 resonance units (RU≈pg·mm-2), using standard amino-coupling techniques and reagents (NHS, EDC, ethanolamine) from BiaCore. Purified GST-tagged polypeptide comprising ubiquitin binding domains of p62 protein and GST were diluted in running buffer and captured to similar levels in different flow cells. Single and tandem GST-fused UBA domains were captured on the sensor chip at low (30-55 RU) and high (130-220 RU) densities.
# All injections were done as randomized duplicates, and each experiment was repeated in triplicate. […] The steady-state responses (Req) were estimated by averaging the signal monitored during the last 15 seconds of each injection.
# [2] = target: T1, Mono-ubiquitin (Sigma Aldrich); assay: SPR (BiaCore 3000), captured via GST on anti-GST chip, mono-ubiquitin injected, steady state
# Description: as §1
# All injections were done as randomized duplicates, and each experiment was repeated in triplicate. All the experimental profiles were double referenced using the Scrubber 2.0 software (BioLogic Software), i.e. both the signals from a His6-GST-SV5 reference surface and from blank experiments (running buffer instead of protein) were subtracted. The steady-state responses (Req) were estimated by averaging the signal monitored during the last 15 seconds of each injection. The Req values were plotted against the concentration (C) of mono or tetra-ubiquitin and fitted using the following equation:
binder,measurement,setting,value
B1,Kd,[1],41.3 µM
same,binding stoichiometry (molar ratio ubiquitin:UBA),[2],1 ubiquitin per UBA
